# Measurements as given in paper PMC7391827 (Science (New York, N.Y.), 2020).
# B1: D25 antibody (antibody, V domains shown)
# VH: QVQLVQSGAEVKKPGSSVMVSCQASGGPLRNYIINWLRQAPGQGPEWMGGIIPVLGTVHYAPKFQGRVTITADESTDTAYIHLISLRSEDTAMYYCATETALVVSTTYLPHYFDNWGQGTLVTVSS
# VL: DIQMTQSPSSLSAAVGDRVTITCQASQDIVNYLNWYQQKPGKAPKLLIYVASNLETGVPSRFSGSGSGTDFSLTISSLQPEDVATYYCQQYDNLPLTFGGGTKVEIK
# Tests used:
# [1] = molecular target: prefusion RSVF (preRSVF), prefusion-stabilized respiratory syncytial virus fusion protein (respiratory syncytial virus) (UniProt P03420)
# Chain of prefusion RSVF (preRSVF), prefusion-stabilized respiratory syncytial virus fusion protein (respiratory syncytial virus) (P03420 135-513): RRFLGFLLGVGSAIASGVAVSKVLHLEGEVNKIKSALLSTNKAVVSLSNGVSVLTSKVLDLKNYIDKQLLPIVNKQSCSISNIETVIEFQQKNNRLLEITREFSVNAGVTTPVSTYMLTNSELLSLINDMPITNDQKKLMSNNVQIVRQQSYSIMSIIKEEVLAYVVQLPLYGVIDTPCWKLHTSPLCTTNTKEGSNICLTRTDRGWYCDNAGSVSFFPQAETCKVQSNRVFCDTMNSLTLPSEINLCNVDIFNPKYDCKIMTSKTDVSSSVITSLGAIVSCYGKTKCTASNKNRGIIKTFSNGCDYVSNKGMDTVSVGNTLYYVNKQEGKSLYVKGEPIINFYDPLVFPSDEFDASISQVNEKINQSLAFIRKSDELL
# [2] = molecular target: T1, S0_2.126 (synthetic construct (de novo design)); assay: SPR
# T1 chain: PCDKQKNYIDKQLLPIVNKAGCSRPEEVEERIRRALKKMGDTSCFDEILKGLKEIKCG
Molecule,Kd [1] [nM],Kd [2] [nM]
D25 antibody,0.15,–
B1,–,~0.05
